According to US10117953B2, “Antibody drug conjugates” (Novartis AG, priority 2013, dated 2018):

System: primary human mast cells
Experiment: Mast cell degranulation (β-hexosaminidase release)
Type: cell-based
Conditions: 0.05-100 nM, 90 min
Experimental: Primary human mast cells were cultured from peripheral human blood according to the methods described by Saito et al., (supra). […] Cells were then centrifuged and the supernatants were transferred into 96-well black-walled plates prior to the addition of the β-hexosaminidase substrate. Following 90 min incubation at 37° C., the reaction was stopped by the addition of tris-base (Sigma, Cat # T1503-500G, pH 12, St. Louis, Mo.) and the fluorescence intensity was recorded on the Envision® plate reader.

B1: NEG085: anti-cKIT antibody of Table 1; VH SEQ ID NO 82, VL SEQ ID NO 91; derived from 9P3 (antibody, V domains shown)
VH: EVQLVESGGGLVQPGGSLRLSCAASGFAFSGYYMAWVRQAPGKGLEWVANINYPGSSTYYLDSVKGRFTISRDNAKNSLYLQMNSLRAEDTAVYYCARGDYYGTTYWYFDVWGQGTTVTVSS
VL: DIQMTQSPSSLSASVGDRVTITCRASQSISSYLNWYQQKPGKAPKLLIYYTSRLQSGVPSRFSGSGSGTDFTLTISSLQPEDFATYYCQQGRRLWSFGGGTKVEIK
B1 was tested, and the mast cell degranulation was “do not induce mast cell degranulation of human primary mast cells ex vivo”.
